Data: the supplement of paper PMC10567573

B1: KLHDC10 (parent)
chain: FGGTGIPFGESNGNGVHVCNVKYK

Variants of: B1
Experiment: protein stability index of a GFP-peptide fusion (GPS, HEK-293T) (PSI 1-6); higher = more stable
Conditions: c terminus: a fixed tail appended
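Note: lentivirally expressed fusions sorted by FACS into six bins by GFP to DsRed ratio, PSI derived from sequencing read proportions per bin multiplied by bin number.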

In order of falling protein stability index:
1. FGGTGIPEGESNGNGVHVCNVKYK [F8E]  4.3
2. FGGTGIPKGESNGNGVHVCNVKYK [F8K]  3.84
3. FGGTGIPQGESNGNGVHVCNVKYK [F8Q]  3.75
4. FGGTGIPNGESNGNGVHVCNVKYK [F8N]  3.61
5. FGGTGIPGGESNGNGVHVCNVKYK [F8G]  3.58
6. FDGTGIPFGESNGNGVHVCNVKYK [G2D]  3.46
7. FGGTGIPFGESNGNGVHVCNVKDK [Y23D]  3.3
8. FGCTGIPFGESNGNGVHVCNVKYK [G3C]  3.1
9. FGGTGIPFGESNGNGVHDCNVKYK [V18D]  3.08
10. FGGTGIPLGESNGNGVHVCNVKYK [F8L]  3.04
11. FGGTGIPMGESNGNGVHVCNVKYK [F8M]  3.02
12. FGGTGIPFGESNGNGVHVCNVKSK [Y23S]  2.99
13. FGTTGIPFGESNGNGVHVCNVKYK [G3T]  2.81
14. FGGTGIPFGESNGNGVHVCNIKYK [V21I]  2.78
15. FGGTGIPFGESNGNGVHECNVKYK [V18E]  2.75
16. FFGTGIPFGESNGNGVHVCNVKYK [G2F]  2.72
17. FGGTGIPFGESNGNGVPVCNVKYK [H17P]  2.68
18. FGGTGIPHGESNGNGVHVCNVKYK [F8H]  2.65
19. FGLTGIPFGESNGNGVHVCNVKYK [G3L]  2.63
20. FGGTGIPFGESNGNGVHVCNVKWK [Y23W]  2.62
21. FGGTGIPFGESNGNGVHVCNVKYW [K24W]  2.61
22. FGGTGIPFGESYGNGVHVCNVKYK [N12Y]  2.59
23. FHGTGIPFGESNGNGVHVCNVKYK [G2H]  2.58
24. FYGTGIPFGESNGNGVHVCNVKYK [G2Y]  2.55
25. FGGTGIPIGESNGNGVHVCNVKYK [F8I]  2.5
26. FGGTGIPFGESNGNGVHVCNYKYK [V21Y]  2.5
27. FGGTGIPFGESNGNGVEVCNVKYK [H17E]  2.48
28. FGGTMIPFGESNGNGVHVCNVKYK [G5M]  2.47
29. FGGTGIPFGESNGNGVHVCNVKYM [K24M]  2.42
30. FGGTQIPFGESNGNGVHVCNVKYK [G5Q]  2.42
31. FGGTGIPFGESNGNGVHVCNVKYD [K24D]  2.4
32. FGGTGIPFGESNGNGVHVCNVEYK [K22E]  2.4
33. FGGTSIPFGESNGNGVHVCNVKYK [G5S]  2.39
34. FGGTGIPFGESNGNGVFVCNVKYK [H17F]  2.34
35. FGGTGIPFGESNGNGVVVCNVKYK [H17V]  2.32
36. FGGTGIPFGESNGNGVHVCNEKYK [V21E]  2.31
37. FGGTGIPFGESNGNGVHVCNVKQK [Y23Q]  2.28
38. FGGTGIPFGESNGNGVHTCNVKYK [V18T]  2.27
39. FGGTGIPFGESNGNGVHGCNVKYK [V18G]  2.24
40. FGGTGIPFGESNGNGVHMCNVKYK [V18M]  2.24
41. FGGTGIPFGESNGNGVHVCNVVYK [K22V]  2.24
42. FGGTGKPFGESNGNGVHVCNVKYK [I6K]  2.2
43. FWGTGIPFGESNGNGVHVCNVKYK [G2W]  2.2
44. FGGTGIPFGESNGNGVHVCNVKRK [Y23R]  2.17
45. FGGTGIPFGESNGNGVHFCNVKYK [V18F]  2.15
46. FGGTGIPFGESNGNGVHVCNVKTK [Y23T]  2.14
47. FGGTGIPFGESNGNGVHVCNDKYK [V21D]  2.14
48. FGGTGIPFGESNGNGVHVCNQKYK [V21Q]  2.14
49. FGGTGAPFGESNGNGVHVCNVKYK [I6A]  2.1
50. FGGTGIPFGESNGNGVLVCNVKYK [H17L]  2.08
51. FGGTGIPFGESNGNGVHVCNVKLK [Y23L]  2.07
52. FGGTGIPFGESQGNGVHVCNVKYK [N12Q]  2.06
53. FGGTGIPFGESNGNGVHVCNVKGK [Y23G]  2.04
54. FGGTGIPFGESNGNGVHVCNCKYK [V21C]  2.04
55. FGGTGIPFGESNGNGVHVCNVKFK [Y23F]  2.03
56. FGGTGIPFGESNGNGVHRCNVKYK [V18R]  2.03
57. FQGTGIPFGESNGNGVHVCNVKYK [G2Q]  2.02
58. FGGTGIPFGESNGNGVHVCNVKKK [Y23K]  2.01
59. FGGTGIPFGESNGNGVKVCNVKYK [H17K]  2.01
60. FGGTGIPFGESNGNGVHVCNVKYQ [K24Q]  2
61. FGGTGIPFGESNGNGVHVCNVKYE [K24E]  1.99
62. FGGTGIPWGESNGNGVHVCNVKYK [F8W]  1.98
63. FGGTGIPFGESNGNGVHVCNKKYK [V21K]  1.98
64. FGGTGGPFGESNGNGVHVCNVKYK [I6G]  1.96
65. FVGTGIPFGESNGNGVHVCNVKYK [G2V]  1.92
66. FGGTFIPFGESNGNGVHVCNVKYK [G5F]  1.92
67. FGGTGIPFGESNGNGVAVCNVKYK [H17A]  1.92
68. FGGTVIPFGESNGNGVHVCNVKYK [G5V]  1.9
69. FGGTGIPFGESNGNGVHKCNVKYK [V18K]  1.86
70. FGGTGIPFGESNGNGVHVCNWKYK [V21W]  1.86
71. FGGTGIPFGESAGNGVHVCNVKYK [N12A]  1.85
72. FGGTGTPFGESNGNGVHVCNVKYK [I6T]  1.84
73. FPGTGIPFGESNGNGVHVCNVKYK [G2P]  1.83
74. FGGTGIPFGESNGNGVHVCNVKYN [K24N]  1.82
75. FGGTGIPFGESNGNGVHVCNVKYC [K24C]  1.75
76. FGGTGIPFGESNGNGVCVCNVKYK [H17C]  1.75
77. FGGTGIPFGESSGNGVHVCNVKYK [N12S]  1.74
78. FGGTGIPFGESNGNGVHICNVKYK [V18I]  1.74
79. FGGTGIPFGESNGNGVHVCNAKYK [V21A]  1.74
80. FGGTGIPFGESPGNGVHVCNVKYK [N12P]  1.73
81. FGGTGIPFGESNGNGVHLCNVKYK [V18L]  1.71
82. FGGTGIPFGESNGNGVHVCNVKYS [K24S]  1.66
83. FGGTGIPFGESNGNGVWVCNVKYK [H17W]  1.64
84. FGGTGIPFGESCGNGVHVCNVKYK [N12C]  1.63
85. FGGTGIPFGESNGNGVHVCNVKYR [K24R]  1.63
86. FGGTGIPFGESNGNGVHVCNVFYK [K22F]  1.63
87. FGGTGIPFGESGGNGVHVCNVKYK [N12G]  1.62
88. FGGTGIPFGESVGNGVHVCNVKYK [N12V]  1.6
89. FGGTGIPFGESNGNGVHVCNVKYG [K24G]  1.6
90. FGGTGIPFGESNGNGVHVCNLKYK [V21L]  1.58
91. FGGTGIPFGESNGNGVHVCNVKYI [K24I]  1.42
92. FGGTYIPFGESNGNGVHVCNVKYK [G5Y]  1.34
93. FGGTGIPFGESNGNGVHVCNVLYK [K22L]  1.29
94. FGGTGIPFGESNGNGVHVCNVKYF [K24F]  1
